molecular target: T1, ALK-ECD-myc/his tag protein (human, UniProt Q9UM73 19-1038); test: ELISA, ALK-ECD-myc/his coated at 10 μg/mL, anti-human IgG-HRP
T1 construct: Expressed in 293/293F cells and purified from conditioned medium; biotin labelled for the soluble panning; also called recombinant ALK-ECD-myc/his tag; ALK-ECD protein; not shown: Myc/His tag
T1 sequence (Q9UM73 other isoform, or with tags, fused parts or gaps): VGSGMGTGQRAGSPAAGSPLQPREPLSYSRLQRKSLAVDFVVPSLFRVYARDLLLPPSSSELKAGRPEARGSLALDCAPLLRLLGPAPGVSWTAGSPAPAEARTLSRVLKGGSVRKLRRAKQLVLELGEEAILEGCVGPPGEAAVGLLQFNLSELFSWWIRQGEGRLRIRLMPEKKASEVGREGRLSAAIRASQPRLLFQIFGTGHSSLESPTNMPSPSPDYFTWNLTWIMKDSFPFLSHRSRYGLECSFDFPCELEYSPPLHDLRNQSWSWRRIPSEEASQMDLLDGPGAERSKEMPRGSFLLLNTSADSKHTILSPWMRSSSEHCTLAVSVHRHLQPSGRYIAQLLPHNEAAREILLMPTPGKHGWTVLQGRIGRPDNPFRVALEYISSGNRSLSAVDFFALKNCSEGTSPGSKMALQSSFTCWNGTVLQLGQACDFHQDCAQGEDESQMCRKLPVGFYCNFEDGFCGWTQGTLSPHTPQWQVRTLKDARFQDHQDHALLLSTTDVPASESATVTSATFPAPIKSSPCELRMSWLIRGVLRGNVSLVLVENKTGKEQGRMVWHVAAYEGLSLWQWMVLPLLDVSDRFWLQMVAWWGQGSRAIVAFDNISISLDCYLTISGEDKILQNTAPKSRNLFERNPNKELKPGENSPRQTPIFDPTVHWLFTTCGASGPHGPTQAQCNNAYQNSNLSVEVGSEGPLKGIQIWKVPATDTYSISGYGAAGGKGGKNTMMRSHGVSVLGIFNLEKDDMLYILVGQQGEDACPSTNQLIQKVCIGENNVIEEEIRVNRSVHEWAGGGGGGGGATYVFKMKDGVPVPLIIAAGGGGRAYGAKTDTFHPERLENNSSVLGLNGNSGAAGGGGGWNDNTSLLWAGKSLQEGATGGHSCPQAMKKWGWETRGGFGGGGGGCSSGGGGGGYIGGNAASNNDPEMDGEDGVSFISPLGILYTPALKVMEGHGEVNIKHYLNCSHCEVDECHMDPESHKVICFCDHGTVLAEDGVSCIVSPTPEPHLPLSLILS

Binder	binding result
fully human anti-ALK IgG E5 (antibody, V domains shown, Full length fully human IgG) VH: EVQLLESGGGLVQPGGSLRLSCAASGFTFSLYPMMWVRQAPGKGLEWVSVISSSGGFTFYADSVKGRFTISRDNSKNTLYLQMNSLRAEDTAVYYCARSLAYIFDAFDIWGQGTMVTVSS VL: DIQMTQSPGTLSLSPGERATLYCRASQSLYSSYLAWYQQRPGQAPRLLIYDTSSRATGIPDRFSGSGSGTDFTLTISRLEPEDFAVYYCQQYGTSLRTFGQGTKVEIK	binds
fully human anti-ALK IgG D10 (antibody, V domains shown, Full length fully human IgG; also called DlO; DlO antibody) VH: EVQLLESGGGLVQPGGSLRLSCAASGFTFSKYGMHWVRQAPGKGLEWVSYIVPSGGYTIYADSVKGRFTISRDNSKNTLYLQMNSLRAEDTAMYYCAKLAGDWFDPWGQGTLVTVSS VL: DIQMTQSPLSLPVTLGQPASISCRSSQSLVHSNGNTYLSWFHQRPGQSPRRLIHKISDRVSGVPDRFSGSGSGTDFTLKISRLEAEDVGIYYCMQGTHWPPTFGQGTKVEIK	binds
fully human anti-ALK IgG E1 (antibody, V domains shown, Full length fully human IgG; also called El) VH: EVQLLESGGGLVQPGGSLRLSCAASGFTFSWYSMWWVRQAPGKGLEWVSSIRPSGGKTTYADSVKGRFTISRDNSKNTLYLQMNSLRAEDTAVYYCAKGLDPNGIAAAGGEGYWGQGTLVTVSS VL: QSALTQPASVSGSPGQSITITCSGDALPKQFGYWYQQKPGQAPILVIYKDTERPSGIPERFSGSSSGTIVTLTISGVRAEDEADYYCQSADSSGNSVVFGGGTKLTVLG	binds
fully human anti-ALK IgG A7 (antibody, V domains shown, Full length fully human IgG) VH: EVQLLESGGGLVQPGGSLRLSCAASGFTFSNYIMSWVRQAPGKGLEWVSWISSSGGFTQYADSVKGRFTISRDNSKNTLYLQMNSLRAEDTAVYYCARVIAAAGAFDYWGQGTLVTVSS VL: DIQMTQSPSSVAASVGDRVTITCRASQDISTWLAWYQQKPGKAPKLLLSGASRLERGVPSRFSGSGSGTDFTLTIRGLQSEDFATYYCQQARSFPPTFGQGTRVEMR	binds
fully human anti-ALK IgG B6 (antibody, V domains shown, Full length fully human IgG) VH: EVQLLESGGGLVQPGGSLRLSCAASGFTFSFYTMFWVRQAPGKGLEWVSSIRPSGGLTGYADSVKGRFTISRDNSKNTLYLQMNSLRAEDTAVYYCARGMQRGLDYWGQGTLVTVSS VL: QSALSQPPSASGTPGQRVSISCSGSSSNIGSYYVYWYQHLPGTAPKLLIYRNNQRPSGVPDRFSGSKSGTSASLAISGLRSEDESDYYCAAWDDRLSAWVFGGGTKLTVLG	binds
fully human anti-ALK IgG C1 (antibody, V domains shown, Full length fully human IgG; also called Cl) VH: EVQLLESGGGLVQPGGSLRLSCAASGFTFSMYPMDWVRQAPGKGLEWVSRISSSGGTTEYADSVKGRFTISRDNSKNTLYLQMNSLRAEDTAVYYCTRRFCISGVCPFEYWGQGTLVTVSS VL: QSALTQPPSASGTPGQRVTISCSGSSSNIGSNTVNWYQQLPGTAPKLLIYSNNQRPSGVPDRFSGSKSGTSASLAISGLQSEDEADYYCQSYDNSLTNFVFGSGTKVTVLG	binds
fully human anti-ALK IgG B8 (antibody, V domains shown, Full length fully human IgG) VH: EVQLLESGGGLVQPGGSLRLSCAASGFTFSQYVMAWVRQAPGKGLEWVSSIWSSGGMTWYADSVKGRFTISRDNSKNTLYLQMNSLRAEDTAVYYCAKHGVLRYFDWSMPFDFWGQGTLVTVSS VL: DIQMTQSPPSLSASVGDRVTITCRTSQNISSYLNWYQQKPGKAPKLLIYAASSLQSGVPSRFSGSGSGTDFTLTIRSLQPEDFAAYYCQQSYTSLTFGGGTKVEIK	binds
fully human anti-ALK IgG A2 (antibody, V domains shown, Full length fully human IgG) VH: EVQLLESGGGLVQPGGSLRLSCAASGFTFSGYTMYWVRQAPGKGLEWVSSISPSGGITFYADSVKGRFTISRDNSKNTLYLQMNSLRAEDTAVYYCARGRLFWSGYYTNRLGYAFDIWGQGTMVTVSS VL: DIQMTQSPSSLSASVGDRVTITCRASQSIRSYLNWYQQKPGKAPKLLIYAASNLQSGVPSRFSGSGSGTDFTLSISSLQPEDFATYYCQQSYSTLWTFGQGTKVEIK	binds
fully human anti-ALK IgG B2 (antibody, V domains shown, Full length fully human IgG) VH: EVQLLESGGGLVQPGGSLRLSCAASGFTFSHYMMEWVRQAPGKGLEWVSGIVPSGGLTTYADSVKGRFTISRDNSKNTLYLQMNSLRAEDTAVYYCATITMGAFDIWGQGTMVTVSS VL: not shown	binds
fully human anti-ALK IgG D5 (antibody, V domains shown, Full length fully human IgG) VH: EVQLLESGGGLVQPGGSLRLSCAASGFTFSNYRMSWVRQAPGKGLEWVSWIYSSGGMTTYADSVKGRFTISRDNSKNTLYLQMNSLRAEDTAVYYCARERSKNYDTSVPVGFDIWGQGTMVTVSS VL: DIQMTQSPATLSLSPGERATLSCRASQSISSFLAWYQHKPGQAPRLLIYDASNRATGIPARFSGSGSGTDFTLTISSLEPEDFAVYYCQQRTTWPPALTFGGGTKVEIK	binds

molecular target: T2, ALK expressed on the cell surface (human, UniProt Q9UM73 19-1620); test: FACS on ALK positive cells, 1 to 20 μg/mL IgG, FITC anti-human IgG
T2 construct: also called ALK protein expressed on the cell surface; ALK-expressing cells
T2 sequence (Q9UM73 other isoform, or with tags, fused parts or gaps limits assumed): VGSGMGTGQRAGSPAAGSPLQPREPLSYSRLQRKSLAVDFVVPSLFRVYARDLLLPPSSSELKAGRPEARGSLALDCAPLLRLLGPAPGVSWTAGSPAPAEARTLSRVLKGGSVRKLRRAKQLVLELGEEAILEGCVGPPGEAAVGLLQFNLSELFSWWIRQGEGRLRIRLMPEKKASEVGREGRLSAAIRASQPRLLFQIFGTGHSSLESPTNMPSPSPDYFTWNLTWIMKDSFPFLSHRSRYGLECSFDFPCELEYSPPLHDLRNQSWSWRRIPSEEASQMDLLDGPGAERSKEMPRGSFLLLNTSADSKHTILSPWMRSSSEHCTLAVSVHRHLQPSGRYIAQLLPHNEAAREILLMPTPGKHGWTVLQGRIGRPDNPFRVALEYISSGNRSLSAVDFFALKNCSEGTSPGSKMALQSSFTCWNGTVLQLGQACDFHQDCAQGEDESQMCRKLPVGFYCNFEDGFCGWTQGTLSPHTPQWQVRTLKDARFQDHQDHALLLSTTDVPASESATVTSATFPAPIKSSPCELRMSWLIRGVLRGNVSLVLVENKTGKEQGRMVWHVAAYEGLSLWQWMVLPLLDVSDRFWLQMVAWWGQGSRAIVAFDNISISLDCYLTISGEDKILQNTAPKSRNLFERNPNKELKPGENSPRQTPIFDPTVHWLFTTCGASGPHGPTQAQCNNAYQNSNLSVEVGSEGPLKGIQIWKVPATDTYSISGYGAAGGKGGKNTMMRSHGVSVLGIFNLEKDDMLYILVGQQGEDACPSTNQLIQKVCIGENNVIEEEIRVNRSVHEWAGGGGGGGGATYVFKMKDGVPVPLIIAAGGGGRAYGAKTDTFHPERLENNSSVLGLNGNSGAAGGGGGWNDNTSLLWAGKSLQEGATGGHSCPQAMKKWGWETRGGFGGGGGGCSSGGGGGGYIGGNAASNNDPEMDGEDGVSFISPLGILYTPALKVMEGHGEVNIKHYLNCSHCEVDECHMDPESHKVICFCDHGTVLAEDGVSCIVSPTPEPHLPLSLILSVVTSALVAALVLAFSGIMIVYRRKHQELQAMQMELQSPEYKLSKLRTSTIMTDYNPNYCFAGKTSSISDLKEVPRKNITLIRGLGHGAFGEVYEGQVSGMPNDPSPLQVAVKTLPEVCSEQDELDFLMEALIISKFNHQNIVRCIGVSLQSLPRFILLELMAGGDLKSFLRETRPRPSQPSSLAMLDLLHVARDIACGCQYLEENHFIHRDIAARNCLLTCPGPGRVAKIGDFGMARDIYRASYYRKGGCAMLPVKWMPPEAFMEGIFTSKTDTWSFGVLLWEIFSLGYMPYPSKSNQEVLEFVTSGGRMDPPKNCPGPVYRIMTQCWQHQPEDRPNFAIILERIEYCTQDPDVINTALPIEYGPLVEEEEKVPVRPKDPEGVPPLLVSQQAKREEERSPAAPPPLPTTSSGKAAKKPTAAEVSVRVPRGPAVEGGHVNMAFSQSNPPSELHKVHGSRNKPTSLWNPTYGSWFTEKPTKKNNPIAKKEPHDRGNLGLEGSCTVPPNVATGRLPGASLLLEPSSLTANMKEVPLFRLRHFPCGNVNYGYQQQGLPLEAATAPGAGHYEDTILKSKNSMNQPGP

Binder	binding result
fully human anti-ALK IgG D10 (antibody, V domains shown, Full length fully human IgG; also called DlO; DlO antibody) VH: EVQLLESGGGLVQPGGSLRLSCAASGFTFSKYGMHWVRQAPGKGLEWVSYIVPSGGYTIYADSVKGRFTISRDNSKNTLYLQMNSLRAEDTAMYYCAKLAGDWFDPWGQGTLVTVSS VL: DIQMTQSPLSLPVTLGQPASISCRSSQSLVHSNGNTYLSWFHQRPGQSPRRLIHKISDRVSGVPDRFSGSGSGTDFTLKISRLEAEDVGIYYCMQGTHWPPTFGQGTKVEIK	binds
